Like-named read-outs stand apart in the source and are kept apart here.
Key:
Test in all cases: resonant mirror detection
calmodulin = calmodulin (UniProt P0DP23)
[1] = target: cytoplasmic domain of glycophorin C (UniProt P04921)
p55 [2] = target: p55 (UniProt Q00013)
[3] = target: cytoplasmic domain of CD44 (UniProt P16070)
[4] = target: cytoplasmic domain of band 3 (UniProt P02730)
[5] = target: cytoplasmic domain of glycophorin C (UniProt P04921); remark: listed apart in the source
p55 [6] = target: p55 (UniProt Q00013); remark: listed apart in the source
[7] = target: cytoplasmic domain of CD44 (UniProt P16070); remark: listed apart in the source
[8] = target: cytoplasmic domain of band 3 (UniProt P02730); remark: listed apart in the source

p55, sequence (Q00013 whole entry, the tested form may be a part): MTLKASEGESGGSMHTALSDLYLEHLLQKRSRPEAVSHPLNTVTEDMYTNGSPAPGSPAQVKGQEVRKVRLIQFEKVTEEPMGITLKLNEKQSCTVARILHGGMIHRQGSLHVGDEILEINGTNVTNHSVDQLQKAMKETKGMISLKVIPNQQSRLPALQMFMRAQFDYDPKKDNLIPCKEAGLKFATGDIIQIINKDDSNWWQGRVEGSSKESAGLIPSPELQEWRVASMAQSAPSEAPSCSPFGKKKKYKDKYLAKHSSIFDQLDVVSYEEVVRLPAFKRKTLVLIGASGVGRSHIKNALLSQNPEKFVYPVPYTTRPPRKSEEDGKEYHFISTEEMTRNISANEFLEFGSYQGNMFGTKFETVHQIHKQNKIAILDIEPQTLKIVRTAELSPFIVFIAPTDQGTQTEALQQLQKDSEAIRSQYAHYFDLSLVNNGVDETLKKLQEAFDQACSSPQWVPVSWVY
cytoplasmic domain of band 3, sequence (P02730 1-403): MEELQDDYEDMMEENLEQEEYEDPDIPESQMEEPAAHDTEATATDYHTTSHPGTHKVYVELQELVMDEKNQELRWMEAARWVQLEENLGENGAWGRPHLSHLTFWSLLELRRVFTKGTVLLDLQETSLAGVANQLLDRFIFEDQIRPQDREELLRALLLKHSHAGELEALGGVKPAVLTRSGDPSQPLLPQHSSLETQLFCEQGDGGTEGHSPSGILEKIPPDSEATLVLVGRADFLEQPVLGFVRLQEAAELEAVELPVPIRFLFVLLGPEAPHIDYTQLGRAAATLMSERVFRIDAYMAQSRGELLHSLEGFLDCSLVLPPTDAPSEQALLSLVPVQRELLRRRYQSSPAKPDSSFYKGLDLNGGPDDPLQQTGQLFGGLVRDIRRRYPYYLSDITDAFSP
cytoplasmic domain of CD44, sequence (P16070 671-742): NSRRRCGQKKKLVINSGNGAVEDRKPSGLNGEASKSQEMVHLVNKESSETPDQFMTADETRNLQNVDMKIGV
cytoplasmic domain of glycophorin C, sequence (P04921 82-128): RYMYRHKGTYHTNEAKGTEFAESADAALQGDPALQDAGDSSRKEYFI

Row | Kd (calmodulin) | kon (calmodulin) | Kd [1] | Kd (p55 [2]) | Kd [3] | koff [3] | kon [3] | Kd [4] | koff [4] | Kd [5] | Kd (p55 [6]) | koff (p55 [6]) | Kd [7] | koff [7] | kon [7] | Kd [8] | Substance
1 | 2970 nM | 180000 M⁻¹ s⁻¹ | – | – | – | – | – | – | – | – | – | – | – | – | – | – | GHP-G30 (headpiece region and 30kDa domain of 4.1G) (from UniProt O43491 1-1005) (domain or fragment)
2 | 190 nM | – | – | – | – | – | – | – | – | – | – | – | – | – | – | – | G30 (30kDa membrane binding domain of protein 4.1G) (from UniProt O43491 1-1005) (domain or fragment)
3 | – | – | 237 nM | 113 nM | 314 nM | 0.016 s⁻¹ | 51000 M⁻¹ s⁻¹ | 183 nM | 0.012 s⁻¹ | 1480 nM | 1760 nM | 0.012 s⁻¹ | 737 nM | 0.019 s⁻¹ | 25000 M⁻¹ s⁻¹ | 2190 nM | complex of RHP-G30 and CaM (from UniProt P11171 1-209; P0DP23 1-149)

Reference: publication PMC4371549
